By Kd is commonly meant the equilibrium constant for the complex coming apart. For orientation: koff means a measure of how fast the partners let go of each other. In general, kon refers to a measure of how fast the partners come together. As usually defined, the EC50 is the midpoint of the concentration-response curve.

The target of assay [1] is T1, human C-MET on stably transfected CHO-K1 cells (human, UniProt P08581 25-1390).
T1 construct: also called hucMET; human C-MET+ CHO-K1 cells
The assay is described as follows: flow cytometry, C-MET CHO-K1 cells. A general note: A flow cytometer gives signals particle by particle.

Assay [2] concerns the target T2, cynomolgus monkey C-MET on stably transfected CHO-K1 cells (cynomolgus monkey, UniProt A0M8R7 25-1381 (Papio anubis entry)).
T2 construct: also called cycMET; cyno C-MET+ CHO-K1 cells
In words: flow cytometry, C-MET CHO-K1 cells.

In assay [3] the target is T3, human C-MET His tagged, monomeric (human, UniProt P08581 25-932).
T3 construct: also called monomeric human C-MET; biotinylated human C-MET-His
T3 sequence (P08581 25-932): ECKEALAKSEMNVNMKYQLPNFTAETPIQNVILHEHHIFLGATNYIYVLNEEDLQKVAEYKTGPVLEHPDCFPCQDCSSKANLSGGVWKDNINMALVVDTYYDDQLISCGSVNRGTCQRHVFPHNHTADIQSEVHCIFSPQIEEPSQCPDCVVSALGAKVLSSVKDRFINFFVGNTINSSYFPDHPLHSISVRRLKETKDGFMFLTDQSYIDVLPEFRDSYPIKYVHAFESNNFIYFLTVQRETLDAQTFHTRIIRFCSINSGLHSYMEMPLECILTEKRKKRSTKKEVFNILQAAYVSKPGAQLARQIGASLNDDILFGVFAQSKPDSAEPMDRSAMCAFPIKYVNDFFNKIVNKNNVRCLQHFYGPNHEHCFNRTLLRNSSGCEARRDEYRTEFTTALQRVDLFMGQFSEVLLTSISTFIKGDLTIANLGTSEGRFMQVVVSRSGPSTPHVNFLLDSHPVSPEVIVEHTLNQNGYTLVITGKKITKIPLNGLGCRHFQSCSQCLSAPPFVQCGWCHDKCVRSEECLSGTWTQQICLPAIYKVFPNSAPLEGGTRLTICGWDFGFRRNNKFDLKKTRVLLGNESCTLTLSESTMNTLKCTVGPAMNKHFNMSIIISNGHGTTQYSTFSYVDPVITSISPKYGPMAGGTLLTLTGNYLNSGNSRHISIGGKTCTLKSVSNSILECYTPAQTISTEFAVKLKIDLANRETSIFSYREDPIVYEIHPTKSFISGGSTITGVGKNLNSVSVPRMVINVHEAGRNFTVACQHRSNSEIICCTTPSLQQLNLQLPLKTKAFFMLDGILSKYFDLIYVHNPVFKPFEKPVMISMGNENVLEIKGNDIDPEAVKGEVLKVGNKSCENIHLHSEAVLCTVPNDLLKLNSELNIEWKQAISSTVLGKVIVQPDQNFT
In words: Alphascreen epitope competition in solution: varied IgG4(S228P) against 224G11 IgG4(S228P) binding to biotinylated human C-MET, CPS. On the procedure:
FIG. 4. Epitope competition analysis of IgG4(S228P) proteins in Alphascreen. Anti-C-MET IgG4(S228P) clones were applied in an epitope competition assay using Alphascreen technology. In this assay, library-derived and designer IgGs were analysed for their retention of the parental 224G11 epitope by competing for 224G11 IgG4(S228P) binding to human C-MET protein, in solution.
The AlphaScreen assay (Perkin Elmer) was performed in a 25 μl final volume in 384-well white microtiter plates (Greiner). The reaction buffer contained 1×PBS pH 7.3 (Oxoid, Cat. nr. BR0014G) and 0.05% (v/v) Tween® 20 (Sigma, Cat. nr. P9416). Purified IgG samples were titrated in three fold serial dilutions starting at 50 nM final concentration and incubated with biotinylated human C-MET-His (Acrobiosystems) at 1 nM final concentration for 20 minutes at room temperature. The parental IgG and the anti-human IgG4(S228P) Acceptor beads at were added and the mix was incubated for 1 hour at room temperature. Followed by addition of the Streptavidin Donor beads and incubation for 30 minutes at room temperature. The emission of light was measured in the EnVision multilabel plate reader (Perkin Elmer) and analysed using the EnVision manager software. Values were reported as Counts Per Second (CPS) and corrected for crosstalk.
(Alpha assays give light when donor and acceptor beads are brought close together.)

The target in assay [4] is T4, cynomolgus monkey C-MET His tag, monomeric (cynomolgus monkey, UniProt A0M8R7 25-932 (Papio anubis entry)).
T4 construct: also called monomeric cyno C-MET; cyCMET
T4 sequence (A0M8R7 25-932 S170N/I621T): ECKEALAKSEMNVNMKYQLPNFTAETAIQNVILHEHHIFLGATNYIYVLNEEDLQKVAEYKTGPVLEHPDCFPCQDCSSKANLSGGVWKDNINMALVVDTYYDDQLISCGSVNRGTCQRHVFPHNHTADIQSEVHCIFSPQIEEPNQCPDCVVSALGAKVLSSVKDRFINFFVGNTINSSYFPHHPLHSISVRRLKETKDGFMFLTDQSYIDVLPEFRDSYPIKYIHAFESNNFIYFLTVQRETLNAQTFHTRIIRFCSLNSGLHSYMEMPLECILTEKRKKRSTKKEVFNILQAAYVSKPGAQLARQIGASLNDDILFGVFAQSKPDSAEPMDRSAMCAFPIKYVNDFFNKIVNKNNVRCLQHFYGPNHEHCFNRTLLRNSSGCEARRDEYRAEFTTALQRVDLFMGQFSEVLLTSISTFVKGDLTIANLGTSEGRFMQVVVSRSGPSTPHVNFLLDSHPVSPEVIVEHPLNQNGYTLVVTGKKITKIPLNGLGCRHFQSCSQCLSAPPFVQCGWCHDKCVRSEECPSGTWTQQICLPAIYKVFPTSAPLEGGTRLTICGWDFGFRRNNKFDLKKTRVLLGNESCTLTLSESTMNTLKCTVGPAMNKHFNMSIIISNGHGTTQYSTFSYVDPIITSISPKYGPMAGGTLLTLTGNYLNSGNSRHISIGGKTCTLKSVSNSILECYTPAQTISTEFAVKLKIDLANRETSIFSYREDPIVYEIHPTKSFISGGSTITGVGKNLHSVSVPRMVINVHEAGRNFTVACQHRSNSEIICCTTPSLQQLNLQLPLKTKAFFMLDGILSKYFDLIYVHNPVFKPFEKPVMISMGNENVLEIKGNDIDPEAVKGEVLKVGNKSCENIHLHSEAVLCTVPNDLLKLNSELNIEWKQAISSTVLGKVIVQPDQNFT
The assay is described as follows: SPR Biacore, IgG captured, monomeric C-MET-His analyte. Summed up:
(§1)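 Purified IgG (50 nM) captured via immobilized anti-human CH1 antibody on a CM5 chip; monomeric His-tagged human or cyno C-MET injected as analyte, 2-fold dilutions 100 nM to 6 nM, 300 s dissociation. HBS-EP pH 7.4 running buffer, reference-channel corrected. KD from 1:1 Langmuir global fit.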
(In general: SPR reads the build-up and loss of mass on a sensor chip optically.)

Assay [5] has as its target T3, human C-MET His tagged, monomeric. Described as above. Summed up:
as §1

The target in assay [6] is T1, human C-MET on stably transfected …. The assay is described as follows: flow cytometry, C-MET CHO-K1 cells. Summed up: (§2)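 Purified IgGs titrated three-fold from 500 nM to 0.08 nM on CHO-K1 cells stably expressing C-MET, with wild-type CHO-K1 as control. Detection by FITC-conjugated mouse anti-human IgG; MFI from 10000 cells per sample by flow cytometry.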
The source holds these as a separate data set.

For assay [7], the target named is T2, cynomolgus monkey C-MET on stably …. The assay is described as follows: flow cytometry, C-MET CHO-K1 cells. Summed up:
as §2
The source holds these as a separate data set.

T2 sequence (A0M8R7 25-1381 S170N/I621T limits assumed): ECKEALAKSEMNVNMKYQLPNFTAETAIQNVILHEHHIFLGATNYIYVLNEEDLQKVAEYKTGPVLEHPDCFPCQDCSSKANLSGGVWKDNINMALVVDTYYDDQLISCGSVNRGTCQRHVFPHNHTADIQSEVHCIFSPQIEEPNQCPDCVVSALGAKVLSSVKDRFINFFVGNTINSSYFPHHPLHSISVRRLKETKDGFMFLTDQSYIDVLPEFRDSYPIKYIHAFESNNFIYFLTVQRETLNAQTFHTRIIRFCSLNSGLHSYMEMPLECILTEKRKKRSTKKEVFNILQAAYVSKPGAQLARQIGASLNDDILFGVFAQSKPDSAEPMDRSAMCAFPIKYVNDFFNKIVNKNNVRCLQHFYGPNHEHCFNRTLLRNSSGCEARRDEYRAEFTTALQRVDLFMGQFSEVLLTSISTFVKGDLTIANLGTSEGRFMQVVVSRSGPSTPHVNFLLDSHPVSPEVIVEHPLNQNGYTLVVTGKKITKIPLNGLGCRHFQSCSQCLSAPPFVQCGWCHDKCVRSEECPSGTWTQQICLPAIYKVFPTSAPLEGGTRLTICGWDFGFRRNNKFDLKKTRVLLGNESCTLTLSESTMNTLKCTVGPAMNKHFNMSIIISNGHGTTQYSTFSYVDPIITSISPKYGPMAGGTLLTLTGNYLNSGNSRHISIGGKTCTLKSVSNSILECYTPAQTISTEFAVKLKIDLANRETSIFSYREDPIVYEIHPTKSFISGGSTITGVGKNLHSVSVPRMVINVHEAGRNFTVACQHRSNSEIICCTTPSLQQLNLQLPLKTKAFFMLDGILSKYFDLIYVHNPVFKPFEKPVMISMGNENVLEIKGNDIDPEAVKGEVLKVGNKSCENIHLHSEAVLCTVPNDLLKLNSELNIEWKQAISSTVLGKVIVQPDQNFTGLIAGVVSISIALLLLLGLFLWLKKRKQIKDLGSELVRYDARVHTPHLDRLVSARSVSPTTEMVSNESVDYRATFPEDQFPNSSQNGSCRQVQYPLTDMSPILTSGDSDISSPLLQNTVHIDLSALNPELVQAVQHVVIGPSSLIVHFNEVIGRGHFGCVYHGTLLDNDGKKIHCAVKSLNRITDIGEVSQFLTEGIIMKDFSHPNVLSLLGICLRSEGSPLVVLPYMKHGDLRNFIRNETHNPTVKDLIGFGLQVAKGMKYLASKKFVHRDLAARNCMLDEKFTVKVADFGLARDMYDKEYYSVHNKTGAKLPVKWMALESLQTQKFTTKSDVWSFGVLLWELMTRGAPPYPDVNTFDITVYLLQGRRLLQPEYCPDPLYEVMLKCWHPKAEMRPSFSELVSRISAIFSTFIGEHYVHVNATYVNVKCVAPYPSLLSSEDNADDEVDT
T1 sequence (P08581 25-1390 limits assumed): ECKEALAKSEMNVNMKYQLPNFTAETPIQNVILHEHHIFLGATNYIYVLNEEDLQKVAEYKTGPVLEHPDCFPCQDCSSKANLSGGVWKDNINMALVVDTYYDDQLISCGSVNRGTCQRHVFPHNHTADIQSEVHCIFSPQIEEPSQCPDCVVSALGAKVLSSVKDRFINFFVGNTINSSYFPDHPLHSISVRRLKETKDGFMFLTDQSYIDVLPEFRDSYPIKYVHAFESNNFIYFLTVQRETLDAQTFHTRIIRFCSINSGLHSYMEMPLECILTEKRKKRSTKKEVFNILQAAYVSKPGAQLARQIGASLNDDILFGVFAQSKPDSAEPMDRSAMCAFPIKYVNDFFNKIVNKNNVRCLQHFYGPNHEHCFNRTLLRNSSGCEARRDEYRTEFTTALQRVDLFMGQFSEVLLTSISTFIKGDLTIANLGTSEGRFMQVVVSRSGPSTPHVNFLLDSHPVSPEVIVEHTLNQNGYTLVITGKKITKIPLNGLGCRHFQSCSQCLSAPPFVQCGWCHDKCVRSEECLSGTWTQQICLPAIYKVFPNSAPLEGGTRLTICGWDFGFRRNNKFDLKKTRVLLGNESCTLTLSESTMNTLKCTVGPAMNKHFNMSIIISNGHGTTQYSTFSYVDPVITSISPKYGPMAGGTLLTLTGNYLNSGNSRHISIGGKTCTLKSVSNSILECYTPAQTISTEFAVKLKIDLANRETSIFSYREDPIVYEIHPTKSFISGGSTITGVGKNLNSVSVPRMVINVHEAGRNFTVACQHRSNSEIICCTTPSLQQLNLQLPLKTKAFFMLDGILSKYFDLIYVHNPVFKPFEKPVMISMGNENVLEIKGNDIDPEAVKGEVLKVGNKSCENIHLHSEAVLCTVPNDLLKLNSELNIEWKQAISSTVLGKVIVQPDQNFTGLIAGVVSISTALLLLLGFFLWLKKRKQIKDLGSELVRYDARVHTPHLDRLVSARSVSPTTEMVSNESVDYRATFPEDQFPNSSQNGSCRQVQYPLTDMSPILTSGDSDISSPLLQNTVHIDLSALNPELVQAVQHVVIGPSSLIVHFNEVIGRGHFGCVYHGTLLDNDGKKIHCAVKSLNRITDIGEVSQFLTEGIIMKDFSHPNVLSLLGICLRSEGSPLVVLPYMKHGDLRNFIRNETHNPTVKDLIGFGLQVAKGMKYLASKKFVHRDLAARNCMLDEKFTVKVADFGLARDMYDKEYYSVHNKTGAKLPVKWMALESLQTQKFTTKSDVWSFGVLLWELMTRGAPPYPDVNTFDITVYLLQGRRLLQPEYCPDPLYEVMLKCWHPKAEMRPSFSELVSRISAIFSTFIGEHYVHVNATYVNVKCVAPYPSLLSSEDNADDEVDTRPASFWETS

B1: 04E10 (antibody, IgG4, V domains shown)
VH: QVQLVQSGAEVKKPGASVKVSCKASGYIFTSYTMHWVRQAPGQGLEWMGWIKPNNGSASYAQKFQGRVTMTRDTSTSTVYMELSSLRSEDTAVYYCARSEITTEEDYWGQGTLVTVSS
VL: EIVLTQSPGTLSLSPGERATLSCRASQSVDSYANSYLHWYQQKPGQAPRLLIYRGSTRESGIPDRFSGSGSGTDFTLTISRLEPEDFAVYYCQQSKSEPLTFGGGTKVEIK
With B1, the “maximum MFI, fold over Isotype IgG4 background” value in assay [1] and in assay [2] was > 10 fold in each case. Moreover, in assay [3], the “IC50 (read off the curve)” value was ~2 nM. For the same molecule, the Kd in assay [4] was 2.2 nM; in assay [5] it was 1.6 nM. Besides, the koff was determined as 0.00011 s⁻¹ in assay [4] and 5e-05 s⁻¹ in assay [5]. For the same molecule, the association rate constant (kon) came to 49000 M⁻¹ s⁻¹ in assay [4] and 31000 M⁻¹ s⁻¹ in assay [5]. For the same molecule, the EC50 in assay [6] stood at 9.66 nM; in assay [7], 2.94 nM.

The values are drawn from patent US20260042850A1 (LOCKBODY THERAPEUTICS, published 2026).
